Results on one protein are retold here after patent publication US20160083712A1 (UNIVERSITY OF LEICESTER, published 2016).

The data set concerns the molecule itself. Put plainly: crystal structure, PISA analysis of assemblies.

B1: CSN51-257 wild type (human CSN5 residues 1-257, GST tag cleaved off) (enzyme)
chain: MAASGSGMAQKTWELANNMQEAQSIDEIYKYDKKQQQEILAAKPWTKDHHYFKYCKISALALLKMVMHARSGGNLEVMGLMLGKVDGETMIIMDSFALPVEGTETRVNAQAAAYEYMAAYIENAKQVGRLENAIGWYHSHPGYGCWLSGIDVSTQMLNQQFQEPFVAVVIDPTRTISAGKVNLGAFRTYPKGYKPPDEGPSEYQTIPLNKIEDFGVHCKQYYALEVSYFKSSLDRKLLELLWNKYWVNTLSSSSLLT
notes: Purified after cleavage by GST-3C protease; Crystallised form (PDB 4F70; SeMet-labelled for the crystal); Monomer-dimer equilibrium in solution; also called WT protein
Regarding B1, the binding result is listed as “binds”.
